Test results from US20200087400A1 (EUREKA THERAPEUTICS, published 2020).

B1: PSA146/HLA-A*02:01-specific scFv phage clone #14 (scFv, V domains shown)
VH: EVQLVQSGAEVKKPGASVKVSCKASGYTFTGYFMHWVRQAPGQGLEWMGGFDPEDGETIYAQKFQGRVTMTEDTSTDTAYMELSSLRSEDTAVYYCARYSYDLWGQGTLVTVSS
VL: QTVVTQEPSLTVSPGGTVTLTCASSTGAVTSGYYPNWFQQKPGQAPRALIYSTSNKHSWTPARFSGSLLGGKAALTLSGVQPEDEAEYYCLLYYGGAQWVFGGGTKLTVLG
B2: PSA146/HLA-A*02:01-specific scFv phage clone #15 (scFv, V domains shown)
VH: QVQLVQSGAEVKKPGSSVKVSCKASGGTFSSYAISWVRQAPGQGLEWMGRIIPILGIANYAQKFQGRVTITADKSTSTAYMELSSLRSEDTAVYYCARVSQPVYGSSTYDIWGQGTLVTVSS
VL: QAVLTQPPSASGTPGQRVTISCSGRSSNLGSNSVNWYQQVPGTAPKLLIFDNHQRPSGVPDRFSGSKSGTSASLAISGLRSEDETDYYCAAWDDSLNSVVFGGGTKLTVLG
B3: PSA146/HLA-A*02:01-specific scFv phage clone #18 (scFv, V domains shown)
VH: QVQLVQSGAEVKKPGESLKISCKGSGYSFTSYWIGWVRQMPGKGLEWMGIIYPGDSDTRYSPSFQGQVTISADKSISTAYLQWSSLKASDTAMYYCARWGSRGFLDAFDIWGQGTMVTVSS
VL: QSVVTQPPSVSAAPGQRVTISCSGSSSNIGNNYVSWYQQLPGAAPRLLIYDNDKRPSGIPDRFSGSKSGTSATLGITGLQTGDEADYYCGTWDSSLSSGVFGGGTKLTVLG

What was measured:
[1] = target: T1, control peptide A2E-15/HLA-A*02:01 complex on T2 cells (member of the P19 mixture) (human); experiment: flow cytometry, phage on T2 cells
T1 construct: Loaded on T2 cells as part of the mixture of 19 control peptides
Method in brief: (§1)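 T2 cells + peptide + β2M → purified scFv phage → mouse anti-M13 mAb → R-PE anti-mouse IgG; each step 30-60 min on ice, two washes between. ELISA: phage clones on coated plate, HRP anti-M13, A450.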

[2] = target: T2, control peptide A2E-6/HLA-A*02:01 complex on T2 cells (member of the P19 mixture) (human); experiment: flow cytometry, phage on T2 cells
T2 construct: Loaded on T2 cells as part of the mixture of 19 control peptides
Method in brief: as §1

[3] = target: T3, control peptide A2E-14/HLA-A*02:01 complex on T2 cells (member of the P19 mixture) (human); experiment: flow cytometry, phage on T2 cells
T3 construct: Loaded on T2 cells as part of the mixture of 19 control peptides
Method in brief: as §1

[4] = target: T4, control peptide A2E-21/HLA-A*02:01 complex on T2 cells (member of the P19 mixture) (human); experiment: flow cytometry, phage on T2 cells
T4 construct: Loaded on T2 cells as part of the mixture of 19 control peptides
Method in brief: as §1

[5] = target: T5, control peptide A2E-10/HLA-A*02:01 complex on T2 cells (member of the P19 mixture) (human); experiment: flow cytometry, phage on T2 cells
T5 construct: Loaded on T2 cells as part of the mixture of 19 control peptides
Method in brief: as §1

[6] = target: T6, control peptide A2E-3/HLA-A*02:01 complex on T2 cells (member of the P19 mixture) (human); experiment: flow cytometry, phage on T2 cells
T6 construct: Loaded on T2 cells as part of the mixture of 19 control peptides
Method in brief: as §1

[7] = target: T7, control peptide A2E-1/HLA-A*02:01 complex on T2 cells (member of the P19 mixture) (human); experiment: flow cytometry, phage on T2 cells
T7 construct: Loaded on T2 cells as part of the mixture of 19 control peptides
Method in brief: as §1

[8] = target: T8, control peptide A2E-5/HLA-A*02:01 complex on T2 cells (member of the P19 mixture) (human); experiment: flow cytometry, phage on T2 cells
T8 construct: Loaded on T2 cells as part of the mixture of 19 control peptides
Method in brief: as §1

[9] = target: T9, control peptide A2E-7/HLA-A*02:01 complex on T2 cells (member of the P19 mixture) (human); experiment: flow cytometry, phage on T2 cells
T9 construct: Loaded on T2 cells as part of the mixture of 19 control peptides
Method in brief: as §1

[10] = target: T10, control peptide A2E-11/HLA-A*02:01 complex on T2 cells (member of the P19 mixture) (human); experiment: flow cytometry, phage on T2 cells
T10 construct: Loaded on T2 cells as part of the mixture of 19 control peptides
Method in brief: as §1

[11] = target: T11, control peptide A2E-13/HLA-A*02:01 complex on T2 cells (member of the P19 mixture) (human); experiment: flow cytometry, phage on T2 cells
T11 construct: Loaded on T2 cells as part of the mixture of 19 control peptides
Method in brief: as §1

[12] = target: T12, control peptide A2E-17/HLA-A*02:01 complex on T2 cells (member of the P19 mixture) (human); experiment: flow cytometry, phage on T2 cells
T12 construct: Loaded on T2 cells as part of the mixture of 19 control peptides
Method in brief: as §1

[13] = target: T13, control peptide A2E-8/HLA-A*02:01 complex on T2 cells (member of the P19 mixture) (human); experiment: flow cytometry, phage on T2 cells
T13 construct: Loaded on T2 cells as part of the mixture of 19 control peptides
Method in brief: as §1

[14] = target: T14, control peptide A2E-9/HLA-A*02:01 complex on T2 cells (member of the P19 mixture) (human); experiment: flow cytometry, phage on T2 cells
T14 construct: Loaded on T2 cells as part of the mixture of 19 control peptides
Method in brief: as §1

[15] = target: T15, control peptide A2E-2/HLA-A*02:01 complex on T2 cells (member of the P19 mixture) (human); experiment: flow cytometry, phage on T2 cells
T15 construct: Loaded on T2 cells as part of the mixture of 19 control peptides
Method in brief: as §1

[16] = target: T16, control peptide A2E-23/HLA-A*02:01 complex on T2 cells (member of the P19 mixture) (human); experiment: flow cytometry, phage on T2 cells
T16 construct: Loaded on T2 cells as part of the mixture of 19 control peptides
Method in brief: as §1

[17] = target: T17, control peptide A2E-4/HLA-A*02:01 complex on T2 cells (member of the P19 mixture) (human); experiment: flow cytometry, phage on T2 cells
T17 construct: Loaded on T2 cells as part of the mixture of 19 control peptides
Method in brief: as §1

[18] = target: T18, control peptide A2E-16/HLA-A*02:01 complex on T2 cells (member of the P19 mixture) (human); experiment: flow cytometry, phage on T2 cells
T18 construct: Loaded on T2 cells as part of the mixture of 19 control peptides
Method in brief: as §1

Bio-P19 member A2E-3 = target: T19, Bio-P19 member A2E-3 (chain 2 carries a C-terminal BirA substrate peptide (BSP), enzymatically biotinylated; the BSP letters are not given in the patent and are left out); experiment: phage ELISA, streptavidin plate, anti-M13-HRP
T19 construct: also called biotinylated control peptide A2E-3/HLA-A*02:01 monomer
Method in brief: (§2)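 Phage ELISA: individual scFv phage clones from panning pools enriched against PSA146/HLA-A*02:01 were incubated in coated streptavidin plates; binding was detected with HRP anti-M13 and HRP substrate, read at 450 nm. For flow cytometry, T2 cells loaded with peptide and β2M were stained with purified phage clones.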

Bio-P19 member A2E-2 = target: T20, Bio-P19 member A2E-2 (chain 2 carries a C-terminal BirA substrate peptide (BSP), enzymatically biotinylated; the BSP letters are not given in the patent and are left out); experiment: phage ELISA, streptavidin plate, anti-M13-HRP
T20 construct: also called biotinylated control peptide A2E-2/HLA-A*02:01 monomer
Method in brief: as §2

Bio-P19 member A2E-23 = target: T21, Bio-P19 member A2E-23 (chain 2 carries a C-terminal BirA substrate peptide (BSP), enzymatically biotinylated; the BSP letters are not given in the patent and are left out); experiment: phage ELISA, streptavidin plate, anti-M13-HRP
T21 construct: also called biotinylated control peptide A2E-23/HLA-A*02:01 monomer
Method in brief: as §2

[19] = target: T22, HLA-A*02:01 on T2 cells with no peptide loaded (human); experiment: flow cytometry, phage on T2 cells, anti-M13 + R-PE anti-mouse IgG
T22 construct: TAP-deficient T2 cells, no peptide loaded from outside; also called T2 cells without peptide loading
Description: (§3) Individual phage clones from enriched phage display panning pools against PSA146/HLA-A*02:01 complex were incubated in the coated plates. Binding of the phage clones was detected by HRP-conjugated anti-M13 antibodies and developed using HRP substrate. The absorbance was read at 450 nm. […] Then, unique antibody clones were identified through DNA sequencing of ELISA-positive clones. […] T2 cells loaded with different peptides and β2M were first stained with purified scFv phage clones, followed by staining with a mouse anti-M13 mAb, and finally R-PE conjugated horse anti-mouse IgG from Vector Labs. Each step of the staining was performed for between 30-60 minutes on ice and the cells were washed twice between stainings. All 16 clones recognized PSA146-loaded T2 cells specifically. FIG. 3 provides examples of PSA146/HLA-A*02:01 specific phage clone binding to peptide-loaded T2 cells through FACS.

[20] = target: T23, PSA 146-154 peptide/HLA-A*02:01 complex on the cell surface (human); experiment: as above
T23 construct: also called PSA146/HLA-A*02:01; PSA146-loaded T2 cells
Description: as §3

| Binder | binding result [1] | binding result [2] | binding result [3] | binding result [4] | binding result [5] | binding result [6] | binding result [7] | binding result [8] | binding result [9] | binding result [10] | binding result [11] | binding result [12] | binding result [13] | binding result [14] | binding result [15] | binding result [16] | binding result [17] | binding result [18] | binding result (Bio-P19 member A2E-3) | binding result (Bio-P19 member A2E-2) | also measured |
| --- | --- | --- | --- | --- | --- | --- | --- | --- | --- | --- | --- | --- | --- | --- | --- | --- | --- | --- | --- | --- | --- |
| B1 | no binding | no binding | no binding | no binding | no binding | no binding | no binding | no binding | no binding | no binding | no binding | no binding | no binding | no binding | no binding | no binding | no binding | no binding | no binding | no binding | binding result (Bio-P19 member A2E-23): no binding; binding result [19]: no binding; binding result [20]: binds |
| B2 | no binding | no binding | no binding | no binding | no binding | no binding | no binding | no binding | no binding | no binding | no binding | no binding | no binding | no binding | no binding | no binding | no binding | no binding | no binding | no binding | binding result (Bio-P19 member A2E-23): no binding; binding result [19]: no binding; binding result [20]: binds |
| B3 | no binding | no binding | no binding | no binding | no binding | no binding | no binding | no binding | no binding | no binding | no binding | no binding | no binding | no binding | no binding | no binding | no binding | no binding | no binding | no binding | binding result (Bio-P19 member A2E-23): no binding; binding result [19]: no binding; binding result [20]: binds |
